Here are results for 94 variants from the supplement of paper PMC10567573.

To fix the notation:
B1: HDAC6 (parent)
chain: KMKTRELHRESSNFDSIYICPSTF
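Note: lentivirally expressed fusions sorted by FACS into six bins by GFP to DsRed ratio, PSI derived from sequencing read proportions per bin multiplied by bin number.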

The variants in this data set derive from B1. The data set can be described thus: protein stability index of a GFP-peptide fusion (GPS, HEK-293T) (PSI 1-6); higher = more stable. The conditions noted are these: c terminus: a fixed tail appended.
Consider KMKTRELHRESSNFDKIYICPSTF [S16K], for which the protein stability index is 2.29.

KMKTRELHRESSNFDIIYICPSTF [S16I]: the protein stability index was found to be 1.54.

KMKTRELHRESHNFDSIYICPSTF [S12H]: the protein stability index was 2.46.

Turning to KMKTRELHRESFNFDSIYICPSTF [S12F], the protein stability index was 1.74.

Consider KMKTRELHRESTNFDSIYICPSTF [S12T], for which the protein stability index came out at 2.17.

On to KMKTRELHRESRNFDSIYICPSTF [S12R], for which the protein stability index amounted to 1.95.

Take KMKTRELHRESYNFDSIYICPSTF [S12Y]: the protein stability index is 1.53.

As for KMKTRELHRESSNFDSIYICPSTA [F24A], the protein stability index amounted to 3.73.

As to KMKTRELHRESSNFDSIYICPSTP [F24P], the protein stability index amounted to 2.75.

In the case of KMKFRELHRESSNFDSIYICPSTF [T4F], the protein stability index came to 2.11.

KMKCRELHRESSNFDSIYICPSTF [T4C]: the protein stability index turned out to be 1.34.

KMKTRELHRESSNFDSIYICPLTF [S22L]: the protein stability index was determined as 1.42.

Regarding KMKTRELHRESSNFDSIYICPCTF [S22C], the protein stability index came out at 1.85.

Take KMKTRELHRESSNFDSIYICPMTF [S22M]: the protein stability index worked out at 1.42.

In the case of KMKTRELHRESSNFDSIYICPFTF [S22F], the protein stability index is 2.19.

With KMKTRELHRDSSNFDSIYICPSTF [E10D], the protein stability index was 2.03.

KMKTRELHRISSNFDSIYICPSTF [E10I]: the protein stability index worked out at 1.85.

With KMKTRELHRYSSNFDSIYICPSTF [E10Y], the protein stability index is 1.56.

Consider KMKTRLLHRESSNFDSIYICPSTF [E6L], for which the protein stability index was 1.44.

Regarding KMKTRVLHRESSNFDSIYICPSTF [E6V], the protein stability index came to 2.23.

Turning to KMKTRMLHRESSNFDSIYICPSTF [E6M], the protein stability index came out at 1.6.

Take KMKTRKLHRESSNFDSIYICPSTF [E6K]: the protein stability index stood at 2.

With KMKTRQLHRESSNFDSIYICPSTF [E6Q], the protein stability index is 2.66.

In the case of KMKTRFLHRESSNFDSIYICPSTF [E6F], the protein stability index amounted to 1.86.

For KMKTRRLHRESSNFDSIYICPSTF [E6R], the protein stability index is 1.92.

KMKTRYLHRESSNFDSIYICPSTF [E6Y]: the protein stability index amounted to 1.72.

As to KMKTRILHRESSNFDSIYICPSTF [E6I], the protein stability index turned out to be 1.83.

Regarding KMKTRTLHRESSNFDSIYICPSTF [E6T], the protein stability index came out at 3.12.

Consider KMKTRELHRESSVFDSIYICPSTF [N13V], for which the protein stability index was found to be 1.98.

KMKTRELHRESSMFDSIYICPSTF [N13M]: the protein stability index was 2.58.

As to KMKTRELHRESSKFDSIYICPSTF [N13K], the protein stability index stood at 2.23.

As for KMKTRELHRESSNFLSIYICPSTF [D15L], the protein stability index is 4.27.

In the case of KMKTRELHRESSNFMSIYICPSTF [D15M], the protein stability index worked out at 1.92.

As to KMKTRELHRESSNFHSIYICPSTF [D15H], the protein stability index turned out to be 1.44.

Take KMKTRELHRESSNFKSIYICPSTF [D15K]: the protein stability index was 1.79.

For KMKTRELHRESSNFVSIYICPSTF [D15V], the protein stability index turned out to be 2.11.

For KMKTRELHRESSNFSSIYICPSTF [D15S], the protein stability index was found to be 2.04.

Turning to KMKTRELHRESSNFPSIYICPSTF [D15P], the protein stability index was 1.68.

Regarding KMKTQELHRESSNFDSIYICPSTF [R5Q], the protein stability index came out at 2.08.

On to KMKTHELHRESSNFDSIYICPSTF [R5H], for which the protein stability index was determined as 2.88.

For the variant KMKTMELHRESSNFDSIYICPSTF [R5M], the protein stability index stood at 2.4.

As to KMKTRELHRESSNFDSIYICPSMF [T23M], the protein stability index turned out to be 2.44.

In the case of KMKTRELHRESSNFDSIYICPSIF [T23I], the protein stability index came to 1.71.

KMKTRELHRESSNFDSIYICPSVF [T23V]: the protein stability index worked out at 2.92.

On to KMKTRELHRESSNFDSIYICPSCF [T23C], for which the protein stability index stood at 2.5.

As for KMKTRELHRESSNFDSIYICPSKF [T23K], the protein stability index is 2.25.

Regarding KMKTRELHRESSNFDSIYICPSFF [T23F], the protein stability index came to 1.96.

For the variant KMKTRELHRESSNFDSITICPSTF [Y18T], the protein stability index came out at 3.32.

For the variant KMKTRELHRESSNFDSIHICPSTF [Y18H], the protein stability index worked out at 2.41.

Take KMKTRELHRESSNFDSIRICPSTF [Y18R]: the protein stability index came out at 2.52.

As to KMKTRELHRESSNFDSIVICPSTF [Y18V], the protein stability index was found to be 2.86.

On to KMKTRELHRESSNFDSFYICPSTF [I17F], for which the protein stability index came to 1.85.

For the variant KMKTRELHRESSNFDSYYICPSTF [I17Y], the protein stability index was determined as 2.11.

KMKTRELHRESSNFDSTYICPSTF [I17T]: the protein stability index came to 3.25.

KMKTRELHRESSNFDSEYICPSTF [I17E]: the protein stability index worked out at 3.19.

KMKTRELHRESSNFDSWYICPSTF [I17W]: the protein stability index turned out to be 2.06.

Turning to KMKTRELHRESSNFDSNYICPSTF [I17N], the protein stability index worked out at 2.9.

Take KMKTRELKRESSNFDSIYICPSTF [H8K]: the protein stability index amounted to 2.5.

Regarding KMKTRELQRESSNFDSIYICPSTF [H8Q], the protein stability index was 2.92.

Turning to KMKTRELRRESSNFDSIYICPSTF [H8R], the protein stability index came out at 2.22.

As for KMKTRELPRESSNFDSIYICPSTF [H8P], the protein stability index came out at 2.56.

In the case of KMKTRELHRESSNFDSIYICHSTF [P21H], the protein stability index turned out to be 1.34.

With KMKTRELHRESSNFDSIYICDSTF [P21D], the protein stability index is 2.91.

Regarding KMKTRELHRESSNFDSIYICTSTF [P21T], the protein stability index turned out to be 1.54.

With KMKTRELHRESSNFDSIYICKSTF [P21K], the protein stability index came out at 2.32.

On to KMKTRELHRESSNFDSIYICRSTF [P21R], for which the protein stability index amounted to 1.78.

In the case of KMKTRELHEESSNFDSIYICPSTF [R9E], the protein stability index is 2.77.

KMKTRELHVESSNFDSIYICPSTF [R9V]: the protein stability index came out at 2.85.

For KMKTRELHKESSNFDSIYICPSTF [R9K], the protein stability index came out at 2.8.

For the variant KMKTRELHNESSNFDSIYICPSTF [R9N], the protein stability index worked out at 2.4.

KMKTRELHWESSNFDSIYICPSTF [R9W]: the protein stability index was 1.78.

Turning to KMKTRELHQESSNFDSIYICPSTF [R9Q], the protein stability index came out at 2.58.

Regarding KMKTRELHRESSNFDSIYVCPSTF [I19V], the protein stability index amounted to 2.8.

In the case of KMKTRELHRESSNFDSIYKCPSTF [I19K], the protein stability index turned out to be 2.94.

For KMKTRELHRESSNFDSIYLCPSTF [I19L], the protein stability index was 3.14.

With KMKTRELHRESSNFDSIYSCPSTF [I19S], the protein stability index stood at 2.35.

For the variant KMKTRELHRESSNFDSIYISPSTF [C20S], the protein stability index worked out at 2.48.

As to KMKTRELHRESSNFDSIYIDPSTF [C20D], the protein stability index was 2.54.

Turning to KMKTRELHRESSNFDSIYIPPSTF [C20P], the protein stability index came out at 2.69.

In the case of KMKTRELHRESSNSDSIYICPSTF [F14S], the protein stability index came out at 2.8.

Consider KMKTRELHRESSNEDSIYICPSTF [F14E], for which the protein stability index was found to be 3.34.

As to KMKTRELHRESSNIDSIYICPSTF [F14I], the protein stability index is 2.58.

Regarding KMKTRELHRESSNLDSIYICPSTF [F14L], the protein stability index was determined as 2.41.

For the variant KMSTRELHRESSNFDSIYICPSTF [K3S], the protein stability index was found to be 2.81.

In the case of KMWTRELHRESSNFDSIYICPSTF [K3W], the protein stability index is 2.14.

Take KMDTRELHRESSNFDSIYICPSTF [K3D]: the protein stability index is 2.59.

Consider AMKTRELHRESSNFDSIYICPSTF [K1A], for which the protein stability index came to 2.28.

Consider CMKTRELHRESSNFDSIYICPSTF [K1C], for which the protein stability index is 1.7.

Turning to IMKTRELHRESSNFDSIYICPSTF [K1I], the protein stability index was determined as 1.86.

Consider DMKTRELHRESSNFDSIYICPSTF [K1D], for which the protein stability index amounted to 3.04.

In the case of RMKTRELHRESSNFDSIYICPSTF [K1R], the protein stability index was found to be 1.38.

For KHKTRELHRESSNFDSIYICPSTF [M2H], the protein stability index worked out at 2.43.

Take KTKTRELHRESSNFDSIYICPSTF [M2T]: the protein stability index is 2.59.

Consider KIKTRELHRESSNFDSIYICPSTF [M2I], for which the protein stability index was 2.15.
